From patent US20160237160A1 (Bayer, published 2016)

What was measured:
Experiment in all cases: ELISA, Fc fusion protein coated at 1 µg/ml, TPP-2090 at 75 nM, Amplex Red;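 further: binding reported as ELISA signal intensity in Rfu against a panel of TNF receptor superfamily members presented as Fc fusion proteins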
[1] = molecular target: T1, HVEM (TNFRSF14) Fc fusion protein (Human, UniProt Q92956 39-202)
T1 construct: extracellular domain; bought
T1 sequence (looked up): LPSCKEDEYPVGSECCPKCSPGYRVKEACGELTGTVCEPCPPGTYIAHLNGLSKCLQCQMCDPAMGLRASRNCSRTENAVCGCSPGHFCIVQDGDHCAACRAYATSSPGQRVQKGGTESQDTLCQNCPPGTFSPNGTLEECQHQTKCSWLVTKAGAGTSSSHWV
Excerpt: (§1) Shown is the result of an ELISA: Y is “ELISA signal intensity [Rfu]”; X are “TNF receptor superfamily proteins tested (Fc-fusion proteins)”: 1 is “TWEAKR”; 2 is “TWEAKR”; 3 is “Apo-3”; 4 is “Trail-R1”; 5 is “Trail-R2”; 6 is “CD385”; 7 is “CD95”; 8 is “Rank”; 9 is “TNF-R1”; 10 is “TNF-R2”; 11 is “BAFF-R”; 12 is “DcR3”; 13 is “BCMA”; 14 is “TACI”; 15 is “OX40”; 16 is “CD30”; 17 is “CD27”; 18 is “CD40”; 19 is “Osteoprotegerin”; 20 is “EDAR”; 21 is “GITR”; 22 is “HVEM”; 23 is “NGF R”; 24 is “Trail R3”; 25 is “Lymphotioxin B R”; 26 is “Trail R4”; 27 is “EDA2R”; 28 is “TROY”; 29 is “RELT”; 30 is “4-1BB”.
(§2) To collect dose-response data a serial 3fold dilution of biotinylated IgG starting with a concentration of 2 μM was used as soluble binding partner. Detection was done with anti-hIgG1-HRP and Amplex Red.

[2] = molecular target: T2, TNF-R1 (TNFRSF1A) Fc fusion protein (Human, UniProt P19438 30-211)
T2 construct: extracellular domain; bought
T2 sequence (looked up): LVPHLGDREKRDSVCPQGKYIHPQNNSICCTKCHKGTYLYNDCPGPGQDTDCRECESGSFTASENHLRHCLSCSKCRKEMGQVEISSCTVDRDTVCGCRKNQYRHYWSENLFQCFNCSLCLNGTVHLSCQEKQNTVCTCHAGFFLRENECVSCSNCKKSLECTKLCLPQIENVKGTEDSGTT
Excerpt: as §1, §2

[3] = molecular target: T3, CD95 (TNFRSF6) Fc fusion protein (Human, UniProt P25445 26-173)
T3 construct: extracellular domain; bought
T3 sequence (looked up): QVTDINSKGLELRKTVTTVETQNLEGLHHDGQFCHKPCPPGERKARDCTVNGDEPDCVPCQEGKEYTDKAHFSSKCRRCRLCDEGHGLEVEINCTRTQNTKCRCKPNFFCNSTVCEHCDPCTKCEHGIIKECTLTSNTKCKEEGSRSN
Excerpt: as §1, §2

[4] = molecular target: T4, Trail R 4 (TNFRSF10D) Fc fusion protein (Human, UniProt Q9UBN6 56-211)
T4 construct: extracellular domain; bought
T4 sequence (looked up): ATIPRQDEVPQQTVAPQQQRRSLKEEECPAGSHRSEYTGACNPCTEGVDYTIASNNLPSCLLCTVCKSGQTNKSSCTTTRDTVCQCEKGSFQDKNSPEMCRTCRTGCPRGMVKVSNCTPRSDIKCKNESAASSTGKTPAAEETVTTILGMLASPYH
Excerpt: as §1, §2

[5] = molecular target: T5, CD40 (TNFRSF5) Fc fusion protein (Human, UniProt P25942 21-193)
T5 construct: extracellular domain; bought
T5 sequence (P25942 21-193): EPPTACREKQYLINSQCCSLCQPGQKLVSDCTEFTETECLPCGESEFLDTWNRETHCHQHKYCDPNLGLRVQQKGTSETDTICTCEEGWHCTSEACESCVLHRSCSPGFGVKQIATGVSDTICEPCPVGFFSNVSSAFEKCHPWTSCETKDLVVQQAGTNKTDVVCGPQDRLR
Excerpt: as §1, §2

[6] = molecular target: T6, DcR3 (TNFRSF6B) Fc fusion protein (Human, UniProt O95407 30-300)
T6 construct: extracellular domain; bought
T6 sequence (looked up): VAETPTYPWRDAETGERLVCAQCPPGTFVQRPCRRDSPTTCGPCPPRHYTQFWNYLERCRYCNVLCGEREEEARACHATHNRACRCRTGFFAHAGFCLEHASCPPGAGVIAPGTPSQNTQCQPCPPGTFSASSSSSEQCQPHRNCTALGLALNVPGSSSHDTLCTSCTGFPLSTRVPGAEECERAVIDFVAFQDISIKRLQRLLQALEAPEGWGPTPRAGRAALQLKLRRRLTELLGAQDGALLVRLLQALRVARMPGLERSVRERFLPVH
Excerpt: as §1, §2

[7] = molecular target: T7, OX40 (TNFRSF4) Fc fusion protein (Human, UniProt P43489 29-214)
T7 construct: extracellular domain; bought
T7 sequence (looked up): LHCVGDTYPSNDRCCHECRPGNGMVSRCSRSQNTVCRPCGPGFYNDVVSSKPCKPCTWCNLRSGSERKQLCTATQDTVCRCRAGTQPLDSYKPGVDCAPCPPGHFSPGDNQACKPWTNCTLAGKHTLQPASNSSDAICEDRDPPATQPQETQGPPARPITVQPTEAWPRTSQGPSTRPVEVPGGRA
Excerpt: as §1, §2

EDAR Fc fusion protein = molecular target: T8, EDAR Fc fusion protein (Human, UniProt Q9UNE0 27-187)
T8 construct: extracellular domain; bought
T8 sequence (looked up): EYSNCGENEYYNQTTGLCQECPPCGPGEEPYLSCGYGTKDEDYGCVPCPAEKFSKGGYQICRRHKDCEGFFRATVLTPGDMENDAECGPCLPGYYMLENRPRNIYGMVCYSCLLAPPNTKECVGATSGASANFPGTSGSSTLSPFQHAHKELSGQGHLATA
Excerpt: as §1, §2

[8] = molecular target: T9, GITR (TNFRSF18) Fc fusion protein (Human, UniProt Q9Y5U5 26-162)
T9 construct: extracellular domain; bought
T9 sequence (looked up): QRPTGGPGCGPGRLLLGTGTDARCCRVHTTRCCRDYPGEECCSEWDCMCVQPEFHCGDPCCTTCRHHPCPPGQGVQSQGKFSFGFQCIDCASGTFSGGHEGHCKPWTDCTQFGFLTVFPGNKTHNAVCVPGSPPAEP
Excerpt: as §1, §2

[9] = molecular target: T10, CD-385 (TNFRSF21) Fc fusion protein (Human, UniProt O75509 42-349)
T10 construct: extracellular domain; bought
T10 sequence (looked up): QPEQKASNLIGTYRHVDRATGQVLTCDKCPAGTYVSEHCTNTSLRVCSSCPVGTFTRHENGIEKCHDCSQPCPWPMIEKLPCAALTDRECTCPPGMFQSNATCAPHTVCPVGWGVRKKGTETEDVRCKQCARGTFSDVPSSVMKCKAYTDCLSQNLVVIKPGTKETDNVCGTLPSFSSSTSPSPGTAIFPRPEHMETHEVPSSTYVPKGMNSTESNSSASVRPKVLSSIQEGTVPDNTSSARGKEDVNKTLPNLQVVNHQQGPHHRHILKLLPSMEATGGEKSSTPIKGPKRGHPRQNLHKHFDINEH
Excerpt: as §1, §2

Measured: binding result

B1: TPP-2090 (antibody, human IgG1, kappa, V domains shown)
VH: EVQLLESGGGLVQPGGSLRLSCAASGFTFSPYPMIWVRQAPGKGLEWVSYISPSGGSTHYADSVKGRFTISRDNSKNTLYLQMNSLRAEDTAVYYCARGGDTYFDYFDYWGQGTLVTVSS
VL: DIQMTQSPSSLSASVGDRVTITCRASQSISGYLNWYQQKPGKAPKLLIYQASSLQSGVPSRFSGSGSGTDFTLTISSLQPEDFATYYCQQSYTSPFITFGQGTKVEIKR
notes: Human IgG1
no binding (tested: 75 nM): all assays above
